Assay results taken from patent US20170022281A1 (AbbVie / Abbott, published 2017).
Residue numbers refer to the chain shown, from its start.

T1: human PRLR (Biacore antigen) (human, UniProt P16471 25-234, limits assumed)
T1 construct: The construct injected over captured antibody is not described (a soluble form is likely); also called huPRLR
T1 sequence: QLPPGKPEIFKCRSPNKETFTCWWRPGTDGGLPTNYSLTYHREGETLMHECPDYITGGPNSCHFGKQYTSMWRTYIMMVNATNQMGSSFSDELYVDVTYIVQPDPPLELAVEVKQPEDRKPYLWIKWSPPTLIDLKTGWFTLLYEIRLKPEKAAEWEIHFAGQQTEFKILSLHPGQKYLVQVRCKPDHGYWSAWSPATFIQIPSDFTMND

T2: human PRLR ECD-Fc fusion protein (human, UniProt P16471 25-233)
T2 construct: not shown: Fc region (captured by goat anti-human Fc)
T2 sequence: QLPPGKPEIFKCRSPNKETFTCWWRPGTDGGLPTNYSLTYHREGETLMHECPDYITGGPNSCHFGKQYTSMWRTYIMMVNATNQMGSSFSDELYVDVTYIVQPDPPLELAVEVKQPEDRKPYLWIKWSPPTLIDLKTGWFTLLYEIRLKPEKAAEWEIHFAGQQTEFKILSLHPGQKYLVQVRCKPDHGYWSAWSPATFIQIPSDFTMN

T3: cyno PRLR ECD-his6 protein (cyno)
T3 chain: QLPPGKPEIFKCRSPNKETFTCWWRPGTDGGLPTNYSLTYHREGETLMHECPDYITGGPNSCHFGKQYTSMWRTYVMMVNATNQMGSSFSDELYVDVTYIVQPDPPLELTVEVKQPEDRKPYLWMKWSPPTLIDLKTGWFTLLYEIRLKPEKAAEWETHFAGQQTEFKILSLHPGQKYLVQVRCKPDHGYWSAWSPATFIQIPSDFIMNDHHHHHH

T4: cyno PRLR (Biacore antigen) (cyno, UniProt A0A2K5WXK1 25-234)
T4 construct: also called cyPRLR
T4 sequence: T3 chain

T5: murine PRLR (Biacore antigen) (murine, UniProt Q08501 20-229, limits assumed)
T5 construct: also called muPRLR
T5 sequence (looked up): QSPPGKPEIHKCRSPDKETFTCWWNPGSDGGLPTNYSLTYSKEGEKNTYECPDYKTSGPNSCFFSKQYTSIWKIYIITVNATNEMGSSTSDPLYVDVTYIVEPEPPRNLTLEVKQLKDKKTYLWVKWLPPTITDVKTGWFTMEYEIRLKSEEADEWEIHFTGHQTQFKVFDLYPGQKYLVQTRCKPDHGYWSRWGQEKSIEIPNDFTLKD

B1: Ab49 (antibody, human IgG1, kappa, V domains shown)
VH: EVQLVQSGAEVKKPGASVKVSCKASGYTFTDYNIHWVRQAPGQGLEWIGYIYPNNDGTGYNQKFKSRATLTVDNSTSTAYMELRSLRSDDTAVYYCARGDGNYVGDMDYWGQGTTVTVSS
VL: DIQMTQSPSSLSASVGDRVTITCRASENIYSYLAWYQQKPGKAPKLLVYNAKTLAEGVPSRFSGSGSGTDFTLTISSLQPEDFATYYCQHHYATPFTFGQGTKLEIKR
notes: humanized from Ab8; G1; also called Ab3 HC.1a and Ab3 LC.1b
B2: Ab21 (antibody, human IgG1, kappa, V domains shown)
VH: EVQLVQSGAEVKKPGSSVKVSCKASGYTFTTYWMHWVRQAPGQGLEWIGEIDPSDSYSNYNQKFKDRATLTVDKSTSTAYMELSSLRSEDTAVYYCARNGGLGPAWFSYWGQGTLVTVSS
VL: EIVMTQSPATLSVSPGERATLSCKASQYVGTAVAWYQQKPGQSPRLLIYSASNRYTGVPARFSDSGSGTEFTLTISSLQSEDFAVYFCQQYSSYPWTFGGGTKVEIKR
notes: humanized from Ab6; G1; also called Ab1 HC.1a and Ab1 LC.2a
B3: Ab5 (antibody, V domains shown)
VH: QVQLQQPGAELVRPGTSVKLSCKASGYTFTSFWMHWVKQRPGQGLEWIGVIDPSDTYTNYNQKFKGKATLTVDTSSSTAYMQLSSLTSEDSAVYYCARGDYSNWFTYWGQGTLVTVSA
VL: DVVMTQTPLSLPVSLGDQASISCRSSQRLVHSNGNTYLHWYLQKPGQSPKLLIYKVSNRFSGVPDRFSGSGSGTDFTLKISRVEAEDLGVYFCSQSTHVPWTFGGGTKLEIK
notes: murine monoclonal, isotype G2a; also called murine Ab5
B4: Ab7 (antibody, V domains shown)
VH: QVQLQQPGAELVMPGTSVKLSCKASGYTFTSYWIHWVKQRPGQGLEWIGEIDPSDSYTNYNQKFKGKATLTVDRSSSTAYMQLSSLTSEDSAVYYCGRSFFTNWFAYWGQGTLVTVSA
VL: B3 VL with R28S, S81N, W101F, G105S
notes: murine monoclonal, isotype G1; also called murine Ab7
B5: Ab11 (antibody, V domains shown)
VH: EVKLVESGGGLVQPGGSLKLSCAASGFTFSDYYMFWVRQTPEKSLEWVAYISNGGGSTYYPDTVKGRFTISRDNAKNTLYLQMSRLKSEDTAMYYCSRQLFYYGSRGAMGYWGQGTSVTVSS
VL: B3 VL with V3L, R28S, L29I, H39E, F92Y, S94F, S96G, T97S, W101F, G105S
notes: murine monoclonal, isotype G1; also called murine Ab11
B6: Ab13 (antibody, V domains shown)
VH: B3 VH with T56S, Y57H, D73N, Q82H
VL: B3 VL with L9F, R28S, G89E, V90L
notes: murine monoclonal, isotype G2a; also called murine Ab13
B7: Ab10 (antibody, V domains shown)
VH: EVQLHQSGPELVKPGASVKISCKASGYTFTDYNMHWMKQSHGKSLEWIGYFYPYNGGTGYNQEFKNKATLTVDISSSTAYMELRRLTSEDSAVYYCARGGWGIYYAMDYWGQGTSVTVSS
VL: DIQMTQSPASLSASVGETVTITCRASENIYSYLTWYQQKQGKSPQLLVYNAKTLAEGVPSRFSGSGSGTQFSLKINSLQPEDFGSYHCQHHSVTPLTFGAGTKLELK
notes: murine monoclonal, isotype G2a; also called murine Ab10
B8: Ab12 (antibody, V domains shown)
VH: DVQLQESGPGLVKPSQSLSLTCTVTGYSITSDYAWNWIRQFPGNKLEWMGYIGYSGRTSFNPSLKSRISITRDTSKNQFFLQLNSVTTEDTATYYCARGGFAMDYWGQGTSVTVSS
VL: QIVLTQSPGIMSASPGEKVTMTCSASSSVTYMYWYQQKPRSSPKPWIYLTSNLASGVPARFSGSGSGTSYSLTISSMEAEDGATYYCQQWSSTPPLTFGGGTKLELN
notes: murine monoclonal, isotype G2a; reported as PRLR agonist; also called murine Ab12
B9: Ab6 (antibody, V domains shown)
VH: QVQLQQPGAELVMPGSSVKLSCKASGYTFTTYWMHWVKQRPGQGLEWIGEIDPSDSYSNYNQKFKDKATLTVDKSSSTAYMQLSSLTSEDSAVYYCARNGGLGPAWFSYWGQGTLVTVSA
VL: DIVMTQSQKFMSTTVGDRVSITCKASQYVGTAVAWYQQKPGQSPKLLIYSASNRYTGVPDRFTDSGSGTDFTLTISNLQSEDLADYFCQQYSSYPWTFGGGTKLEIK
notes: murine monoclonal, isotype G1; also called murine Ab6

Each binder was assayed against T1, human PRLR (Biacore antigen) (assay: SPR simultaneous binding; PRLR held by surface mAb Ab19).
Method: (§1) Running buffer was HBS-EP+ (10 mM Hepes, pH7.4, 150 mM NaCl, 3 mM EDTA, 0.05% surfactant). Assay was performed at 12° C. using Biacore T200 and CM5 sensor chips with anti-human IgG (Pierce) amine-coupled in all 4 flow cells to ˜2000 RU.
(§2) Separate test mAbs were captured in flowcells 2, 3 & 4 (flowcell 1 was reference, no test mAb). All 4 flowcells were then blocked by injection with isotype control mAb at 50 ug/ml. All 4 flowcells were then injected with antigen or buffer only (buffer only is for double referencing, done for each mAb pair individually). All 4 flowcells were then injected with 2nd test mAb at 10 ug/ml. All 4 flowcells were then regenerated with glycine, pH1.5.
B1 was tested, and the “solution mAb binding, % of PRLR binding” value was -1%. In the case of B2, the “solution mAb binding, % of PRLR binding” value is reported as -1%.

Each binder was assayed against T1, human PRLR (Biacore antigen) (assay: SPR simultaneous binding; PRLR held by surface mAb chAb5).
Method: as §1, §2
B1 was tested, and the “solution mAb binding, % of PRLR binding” value was 0%. With B2 the “solution mAb binding, % of PRLR binding” value was -1%.

What follows are binders tested against T1, human PRLR (Biacore antigen) (assay: SPR simultaneous binding; PRLR held by surface mAb chAb6).
Method: as §1, §2
With B1 the “solution mAb binding, % of PRLR binding” value was -2%. B2 was tested, and the “solution mAb binding, % of PRLR binding” value was -1%.

The binders below were run against T1, human PRLR (Biacore antigen) (assay: SPR simultaneous binding; PRLR held by surface mAb chAb8).
Method: as §1, §2
With B1 the “solution mAb binding, % of PRLR binding” value was -1%. With B2 the “solution mAb binding, % of PRLR binding” value was 0%.

The binders below were run against T2, human PRLR ECD-Fc fusion protein (assay: ELISA on ECD).
Method in brief: (§3)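 EC50 values derive from fitted binding curves of antibody serial dilutions (1 h) on captured PRLR. Detection used an HRP-conjugated secondary (1 h), TMB development for 3–5 min, an H₂SO₄ stop and a 450 nm read, with all steps in Tween/PBS pH 7.4 buffer.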
B3 was tested, and the EC50 was 0.071 nM. Binder B4 has an EC50 of 0.098 nM. With B5 the EC50 was 0.093 nM. With B6 the EC50 was 0.07 nM. Work on B7 yielded an EC50 of 0.147 nM. With B1 the EC50 was 0.0954 nM. B8 was tested, and the EC50 was 0.069 nM. In the case of B9, the EC50 is reported as 0.086 nM. Binder B2 has an EC50 of 0.0728 nM.

Target: T3, cyno PRLR ECD-his6 protein
Assay: ELISA on ECD
Method in brief: as §3
For B3, the EC50 was 0.095 nM. In the case of B4, the EC50 is reported as 0.202 nM. In the case of B5, the EC50 is reported as 0.153 nM. B6 was tested, and the EC50 was 0.143 nM. B1 showed an EC50 of 0.361 nM. For B8, the EC50 was < 4 nM. B2 showed an EC50 of 0.0537 nM.

Each binder was assayed against T1, human PRLR (Biacore antigen) (assay: SPR simultaneous binding; PRLR held by surface mAb chAb7).
Method: as §1, §2
For B1, the “solution mAb binding, % of PRLR binding” value was 0%. B2 was tested, and the “solution mAb binding, % of PRLR binding” value was 0%.

Each binder was assayed against T1, human PRLR (Biacore antigen) (assay: SPR simultaneous binding; PRLR held by surface mAb Ab21).
Method: as §1, §2
In the case of B1, the “solution mAb binding, % of PRLR binding” value is reported as -1%. In the case of B2, the “solution mAb binding, % of PRLR binding” value is reported as -1%.

The binders below were run against T1, human PRLR (Biacore antigen) (assay: SPR simultaneous binding; PRLR held by surface mAb Ab40).
Method: as §1, §2
B1 was tested, and the “solution mAb binding, % of PRLR binding” value was -3%. In the case of B2, the “solution mAb binding, % of PRLR binding” value is reported as -2%.

The binders below were run against T1, human PRLR (Biacore antigen) (assay: SPR simultaneous binding; PRLR held by surface mAb LFA102).
Method: as §1, §2
For B1, the “solution mAb binding, % of PRLR binding” value was -2%. With B2 the “solution mAb binding, % of PRLR binding” value was 104%.

What follows are binders tested against T1, human PRLR (Biacore antigen) (assay: SPR simultaneous binding; PRLR held by surface mAb Ab49).
Method: as §1, §2
In the case of B1, the “solution mAb binding, % of PRLR binding” value is reported as -1%. B2 was tested, and the “solution mAb binding, % of PRLR binding” value was 0%.

What follows are binders tested against T4, cyno PRLR (Biacore antigen) (assay: SPR Biacore).
Method in brief: (§4)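 Association rate, dissociation rate and dissociation constant were measured by surface plasmon resonance on a Biacore instrument. PRLR antigen was tested at 600 nM, 66.67 nM and 7.41 nM, a 3-point, 9-fold dilution series. Constants came from a 1:1 binding model fit (local Rmax, mass-transport term included) in Biacore T200 Evaluation Software.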
B3 gave a Kd of 0.7 nM, a koff of 0.000235 s⁻¹ and a kon of 336000 M⁻¹ s⁻¹. For B4, the Kd was 0.127 nM, the koff was 3.29e-05 s⁻¹ and the kon was 259000 M⁻¹ s⁻¹. Work on B9 yielded a Kd of 0.807 nM, a koff of 0.00109 s⁻¹ and a kon of 1.36e+06 M⁻¹ s⁻¹.

These binders were tested against T1, human PRLR (Biacore antigen) (assay: SPR Biacore).
Method in brief: as §4
In the case of B3, the Kd is reported as 0.572 nM, the koff is reported as 0.000203 s⁻¹ and the kon is reported as 355000 M⁻¹ s⁻¹. Work on B4 yielded a Kd of 0.153 nM, a koff of 4.27e-05 s⁻¹ and a kon of 280000 M⁻¹ s⁻¹. With B5 the Kd was 69.2 nM, the koff was 0.0211 s⁻¹ and the kon was 305000 M⁻¹ s⁻¹. For B6, the Kd was 0.997 nM, the koff was 0.000431 s⁻¹ and the kon was 433000 M⁻¹ s⁻¹. Work on B7 yielded a Kd of 1.41 nM, a koff of 0.000228 s⁻¹ and a kon of 161000 M⁻¹ s⁻¹. B1 gave a Kd of 0.214 nM, a koff of 0.00012 s⁻¹ and a kon of 558000 M⁻¹ s⁻¹. For B8, the Kd was 6.6 nM, the koff was 0.00186 s⁻¹ and the kon was 282000 M⁻¹ s⁻¹. Work on B9 yielded a Kd of 0.45 nM, a koff of 0.000576 s⁻¹ and a kon of 1.28e+06 M⁻¹ s⁻¹. In the case of B2, the Kd is reported as 0.554 nM, the koff is reported as 0.000586 s⁻¹ and the kon is reported as 1.06e+06 M⁻¹ s⁻¹.

The binders below were run against T5, murine PRLR (Biacore antigen) (assay: SPR Biacore).
Method in brief: as §4
For B3, the Kd was 14.4 nM, the koff was 0.00291 s⁻¹ and the kon was 202000 M⁻¹ s⁻¹. B4 was tested, and the Kd was 41.7 nM, the koff was 0.0035 s⁻¹ and the kon was 84000 M⁻¹ s⁻¹. B9 gave a Kd of 635 nM, a koff of 0.394 s⁻¹ and a kon of 622000 M⁻¹ s⁻¹.
